# Experimental data: the DeepSol protein solubility set
# Test: soluble on expression in E. coli; label from the status in PepcDB or PDB records
row,Sequence,soluble on expression in E. coli
1,MEKYIKEQRSICDKYKAEYVESPNDLKLGIAQNVKDGIAPINGLRMPIENGTTGWYIWAGEEMGTEEDFFLPLHVQHIDEWAPEIKKYLGLPPGWRFLIAGDYEDVWYDPNLFDEDLEEDADEWEENMLQEYGWYMHSILAEDIDGIHANYHTHGLRDNFNHQDLQIALNMDPEVAHSVFCTIIEEIKSGKKFEQGIEYTNIIEGYPIIMKSFVEMDREVLRVLLPDERGILPTRPECDECYKTQLDDIEES,not soluble
2,MGSDKIHHHHHHNEKQDWVGTWTASPQPTWGTDFALPVKMVPKLENQTIRQTVRTSVGGRRFRIVLSNEYSNVPIQIGEIRAARAGEDSKITAGTDRAVTFGGQAKATVPAGAPLVSDPVELPLDALSRLSISVYLPQPTPIATFHWDGKQTAYIGDGNQTASETIAAAQTTDARTLVSEILVDAPANNGAVIAIGDSITDGNGATLDADNRWPDVLAERLVSKQVSVLNAGISGARLLDDAMGVKASARFNRDVLAQPGVKAVILLIGINDISWPGTPFAPEKSLPSLAALTTGYLQLAAQAHAHNLIIVGGTLTPFEGALSGTPLDAYYTPEKEALRQKVNNWIRTSGAFDAVVDFDLLLRDPLHPTRLLPEFDSGDHLHPGDKGNRAMAEAIDLGQLIKN,not soluble
3,MGSDKIHHHHHHMNDYIIEMLNITKEFPGIIANDNITLRLKKGEIHALLGENGAGKSTLMSVLFGLYQPEKGEIRKNGNTVKINNPNDANALGIGMVHQHFKLVEIFTVLENIILGVEPHALGFLQKKKAREKVVELSKQYGLEVNPDALIEKISVGMQQRVEILKMLYRDNEILIFDEPTAVLTPQEIDELMEIMRRFAKEGKSILFITHKLNEIMAVADRCTVLRKGQYVGTVDIKDTTKEELSRMMVGRDVSFRVQKETMTPGRVVLSVRNVSVPSKTSKKNAVSNVSFDVRAGEIVCLAGIDGNGQTEFVSALTGLERHTSGTITLCDQDISKASVRTRSQAGMSHIPEDRHKYGLVLDYTLEDNLVIQRYWQPQFQRFGFIRRKAVRSYAEGLIKQYDVRSGQGPLTIARSMSGGNQQKTIIGREIDKDHELLVAVQPTRGLDVGAIEYIHKQLVARRNAGKAVLLVSLELDEVMNVSDRILVMYEGEIVGELDPKTTTVQELGLYMSGAKRNLKEGSHAG,not soluble
4,MGSDKIHHHHHHMVKIKGLNGNLVFIFGPGSFDEYLSFLEEKLTANKQLFSGSRVIFKGEELKKLSHSQIASLQELCLRHGVIMNNNAVTVNKGSSKDLVIYRNLRSGQKLRSEGSVIIWGDVHESAEILAAGDIIVLGKLDGIAHAGCYGDMNRLIFALSLSPGQIRIGDRLSRSPEDPDKSPHPEIAFWDGENICIKAYSSRSGLRG,not soluble
5,MGSDKIHHHHHHMTDWHFYEPARGHALRHDPLNAIVAPRPIGWISTISSDGVRNLAPYSFFNLFSYKPPIVGFCSLGAKDSLANARDTGEFVWNLATRPLVEAMNASAAMVPAHVDEFELAKLETLPSAKVRPARVAASPVQFECVVTQIVQLEAQGGAALPAWLVLGEAVAIHIDRQLITNGVYQTAQARPILRGGGPADYFEIGAGQLFTLERPGD,not soluble
6,RTQFKINSIPTVSDPYHINYDLTFSLNFASNKRNTYGTGWLIDWKGDENNPEKNDPFKVYLATNLHVIDALRNNNDYEPYNKDSNNQAFNSEEITRFFSIGKYTYPSIFSELNFIINAREAFVSIQTSTIPKTAYAAVNFVETQGEDESYTDSLSTDNKRDIYADFAVI,not soluble
7,MGSDKIHHHHHHMHQLKREALLREAIAAFNQKGFHATSLGDIATSLGVTKAALYHYFPNKHALLFEAFAEALRVGFEAIEAAERHGGSGLDKLQMAVREYLQVTLSEMSRCVIITEEHALEPQDRAKIVEQRDRFEAKLRGFVREGIEDGSVIPCDPKLAIFSIFGAVNWVPKWFSDSGNWSNKQLAKGMSELLCRAVARHPAEAFAPDIGKMRVE,not soluble
8,AQKSVKISDDISITQLSDKVYTYVSLAEIEGWGMVPSNGMIVINNHQAALLDTPINDAQTEMLVNWVTDSLHAKVTTFIPNHWHGDCIGGLGYLQRKGVQSYANQMTIDLAKEKGLPVPEHGFTDSLTVSLDGMPLQCYYLGGGHATDNIVVWLPTENILFGGCMLKDNQATSIGNISDADVTAWPKTLDKVKAKFPSARYVVPGHGDYGGTELIEHTKQIVNQYIESTSKP,soluble
9,MNKWSRLYVITVRRTFPGRRNIVLTQYWNKSKKMSDESNDVKWNDALTPLQLMVLRDKATERPNTGAYLHTNESGVYHCANCDRPLYSSKAKFDARCGWPAFYEEVSPGAITYHRDNSLMPARVEICCARCGGHLGHVFEGEGWKQLLNLPKDTRHCVNSASLNLKKD,not soluble
10,MAHHHHHHMQRYLQRTVPVAPLRLSISGNSSTEGVHADAAPLLESRFLRRLRAEVDREARAEQLCKGTAARAIQQAFRRWAQTRQLQHRHLSIHGIVRPRCEFDPIRAAELDAALCSIQASLRVWASSRLVEARRLKLLQQITSSVLDPACRTTLRCAASIRHINDRQLREVLCRQEAVERRDLLRRHFVFLVCCHQAFFNDPRMWDAGMSIRRIPLYTHHGLLSAETLPVIWGTRTSSSTLNSATEDSVALRGDAVASPLPPESSSFSVTATVDGCIKGWGSPAEPGSSLLEAVGSDWLVGKEEDGGGFDIDAALRLGEYRLLFSPEEWRLLKKLKASSPHPASPLLSSGADGRRAARDAAGLPEAEAGALAAPRGQLQMAPTEAAAKSACSLSYAKAFASALTFLRQPRMVDPSVRCTVQRLNDIRSSTLEMQQELRVHGYLFAAQVAPLLILGFHYQGLARGDADLSCFTTTSAMKTCRPLVAGRVACAATELRRCLIGAVHYSGGAAESVLPVALEEHKCSGKAAARTLSQRLPPAGVSRSMLLPPRAAPTAGLMRDGFANPGTEALYHAPAKTTRRAGGADPRCGSSHTASRHGSAIRVALAAEWSRRLASSADEVGPYWCEFLSSTGLDGLVTAAGRRGETPGEADAAYQTRASLPSPPLPTRVRRGLESHLVHGGSSYLLQDFMPSLMRRRAHSRAGPQPLDAATGSVVVAVACAGASPSTSVSTSTCGMVHAGEWWDAVERLLLREYTNRRELLTNEAVQRSSIDILRCTAHPSADESVAGV,not soluble
11,MEQCNERPKVSVIIPVYNTCNYVQEALESICQQTLEELEIIVIDDGSTDCSRAIVEEIAIKDTRIQVYKQSNQGLSITRNQGLKFSTGEYIYFMDSDDFLEPDALELCYRKCTKEALDFVFFDAETFTIEPNIPESSFDYQRTLDLPEKICSGIDMLKTQLKTYKFKSSVCLNLFHREFICEERLSFYPGILHEDQLFMIQAYLHASKTGFIRRSFFHRRIRTNSIMTKKFTWKNMEGYLTVTNELLRELPIYPKTYHHTIFFFLRQMLDAAVWQAHTLSLPQRIKLFSLCLKYYRPYVTMRTLMVLLLKTSIHPRQ,soluble
12,MKKYILSLDQGTTSSRAILFNKKGEIVHSAQKEFTQHFPKPGWVEHNAQEIWGSILAVIATCLSEADVKPEQIAGIGITNQRETAVVWDKTTGKPIYNAIVWQSRQTAEICDELKEKGYSEMVREKTGLLIDAYFSGTKVKWILDNVEGAREKAENGDLLFGTIDTWLVWKLSGGKAHVTDYSNASRTLMFNIHDLQWDDELLDMLTVPKSMLPEVRPSSEVYGETIDYHFFGQNVPIAGVAGDQQAALFGQACFGEGMAKNTYGTGCFMLMNTGEKAVASEHGLLTTIAWGIDGKVNYALEGSIFVAGSAIQWLRDGMRMFKDASESEVYASRVESTDGVYVVPAFVGLGTPYWDSEVRGAMFGVTRGTTKEHFIRATLESLAYQIKDVLCAMEADSGIELKTLRVDGGAVKNNFLMKFQSDILDVPVERPVINETTALGAAYLAGLAVGYWKNQDEIKEQWHMDKRFEPTMEAETSEELYAGWKKAIEATKAFK,not soluble
13,MTDAALPPLIQQMLQPEFYPHVVEAPVQLYQTHCSYVLLTGPYAYKLKKPVYFGFLDYSTLEKRQHFLQEELRLNQRTAAPLYQQVLAISQAGDRYQFAETEPAAEYVLQMKQFPKGCLFSEQFESGQLDASVMRQLAAVVAEFHTKTWVDDHVRSYGQVAQIRKAFDENYQQTLHYIGGPQTQAQFDTTKAFSDRFFDTKADLFAARLAADKIRECHGDLHLGNLCRWDNQLFLFDCIEFNEPFRFVDTMYDIAFLVMDLDARGRQDLGTAFLNAYAEMSGDWEGLQVLPLYLSRQAYVRAKVTSFLLDDPAIDSDRRQQAFDQAAAYYQLAHAYAQPAQQGELLLLSGLSGSGKSTLGRTIAERQRAIILRSDAVRKHLAGISLLERGGPEIYSPEMSDRTYGRLLYLGLGLAQAGYRVILDAKYDRQAYRGAALTAAQAQQIPIQILHCQASEETLRQRLQARQGDIADATADLLAQQLTAWQDFSEDEQGFVRAIATEKPLTQQLDALGFLEHHHHHH,not soluble
14,MSLTNKELKKNLEDCVNCRLCYKVCPMMNTFGESPKNILRDIDKNKISYDEIAYSCMLCNACTEACPKDINLKEMFQNLRIKSYRENLKNTSKKFNLKVVQNHQKGSFSKFLTSKNNHKKIKRVFIPGCSLSGYNNEIIFKIKDYLIENLGKVEILLKCCGKPSKDIGNLELFESNLNDIENNLKIKEVDEIIVACENCYKTFGSAFKDIKVITLWEVINEFGVPKELKNKYSDLKEEFALHDPCPIKKEEQIHEAVRSILKDLGIKIVEFEKNRSKTECCGCGGMVGVTNKELWLSQKNKRANSTECENIVSYCESCVNTFKSSDKNALHILDFIFNEDVINGKAKSQKNISTINQWINRIKLANKVGKEGHHHHHH,not soluble
15,MKKIAVFADVQNLYYTVRQAYGCHFNYAALWADISKRGEIVHAFAYAIDRGDSKQQQFQQILRNLGFTVRLKPYIQRSDGSAKGEWDVGITIDIMDFAPQVDEVVLASGDGDFDMLLDRVISKHGVEAVAYGVPGLTANSLIRAASRYVPIEGALL,soluble
16,MAGRVHPRQLAFSLPHAESLSRDNFLEGPANAAGLALIDGWPEWPNRIMWLAGPEGSGKSHLAAIWAEEAGARSTTANALSAAGVPGALATGALVVEDLKAKDFDERALFHLMNLAREDGAYVLFTGRDVPAALDIELNDLRSRLRAVPVVMLLPPDDQLFRGLIVKFCADRQLTVDESVVSYLATRLERSSAAARQAVELLDSEALRLGRPVTRALAAELLRDALEHHHHHH,soluble
17,SENVGKKYFMSSVRRMPLNRAKALCSELQGTVATPRNAEENRAIQNVAKDVAFLGITDQRTENVFEDLTGNRVRYTNWNEGEPNNVGSGENCVVLLTNGKWNDVPCSDSFLVVCEFSD,soluble
18,MYYQQALMRSTVKSSVSLGGIVKYSEQFSSNDAIMSGCLPSNPWITDDTQFWDLNAKLVEIPTKMRVERWAFNFSELIRDPKGRQSFQYFLKKEFSGENLGFWEACEDLKYGDQSKVKEKAEEIYKLFLAPGARRWINIDGKTMDITVKGLKHPHRYVLDAAQTHIYMLMKKDSYARYLKSPIYKDMQAKAIDPQETTKKSSTLPFMRRHLRSSPSPVILRQLEEEAKAREAANTVDITQPGQHMAPSPHLTVYTGTCMPPSPSSPFSSSCRSPRKPFASPSRFIRRPTICPSPILVVLDSSSGLEQKGECSWSGANPGPSVTDSSEASRDTSWTRSRPRAPLKARMALSFSRFLRRGCLASPVFARVSPKCPAVSHGRVQPLGDVGQQLPRLKSKRVANFFQIKMDVPTGSGTCLMDSEDAGTGESGDRATEKEVICPWESL,not soluble
19,INAVRAALLENAHFMEKFYLQNGRFKQTSTKWPSLPIKEAEGFCIRLNGIARGALDSKFMLKAVAIDKDKNPFIIKMNENLVTFICKKSASSCSDGLDYFKGNDKDCKLLK,not soluble
20,MKIGIIGVGKMASAIIKGLKQTPHELIISGSSLERSKEIAEQLALPYAMSHQDLIDQVDLVILGIKPQLFETVLKPLHFKQPIISMAAGISLQRLATFVGQDLPLLRIMPNMNAQILQSSTALTGNALVSQELQARVRDLTDSFGSTFDISEKDFDTFTALAGSSPAYIYLFIEALAKAGVKNGIPKAKALEIVTQTVLASASNLKTSSQSPHDFIDAICSPGGTTIAGLMELERLGLTATVSSAIDKTIDKAKSL,soluble
